The target of this assay is T1, purified RASSF1 RA domain (human, UniProt Q9NS23-2 124-288).
T1 sequence: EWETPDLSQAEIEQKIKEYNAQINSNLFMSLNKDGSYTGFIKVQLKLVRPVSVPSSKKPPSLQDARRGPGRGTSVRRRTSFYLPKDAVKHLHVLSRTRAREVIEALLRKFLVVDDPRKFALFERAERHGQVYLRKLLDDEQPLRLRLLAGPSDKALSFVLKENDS
The assay can be described thus: ITC. In general terms: In ITC the heat of successive injections is recorded.

The values below come from paper doi:10.1101/2020.02.05.923433 (bioRxiv, 2020).

What is called Kd is the free concentration of one partner at which half of the binding sites on the other are occupied at equilibrium, for simple one-to-one binding. The low end stands for a tighter complex, the high end for a looser complex.

B1: GEM-GDP (purified GEM used for ITC) (domain or fragment)
chain: STDSVISSESGNTYYRVVLIGEQGVGKSTLANIFAGVHDSMDSDCEVLGEDTYERTLMVDGESATIILLDMWENKGENEWLHDHCMQVGDAYLIVYSITDRASFEKASELRIQLRRARQTEDIPIILVGNKSDLVRCREVSV
Molecule B1 displayed a Kd of 9.6 µM.
